Laboratory results reported in publication PMC9599533.
Values joined by “and” are separate entries in the source; they are usually repeats but may differ in a detail not shown here. Identical values can stand only once.

Tests used:
[1] = target: M. tuberculosis open gate 20S core particle (20SOG CP) (M. tuberculosis) (UniProt P9WHU1); assay: cryo-EM structure
[2] = target: Mpa_(C-EXT) (mycobacterial proteasome ATPase Mpa with a GGGGS linker inserted between Thr601 and Glu (M. tuberculosis) (UniProt P9WQN5)); assay: cryo-EM structure

With “Mpa_(C-EXT) (mycobacterial proteasome ATPase Mpa with a GGGGS linker inserted between Thr601 and Glu (from UniProt P9WQN5 1-609) (enzyme)” the percent of 20SOG CPs complexed [1] was 50% and 40% and the stoichiometry N [2] was 6.
